The target of the experiment is Soluble CD28-Ig (human), P10747. Briefly: two-colour FACS profile on transfected cells; score of preference for CD28-Ig over CTLA-4-Ig vs WT hB7-1.

B1: Round 2 CD28A4-9 (ligand)
chain: ITPKSVTKRVKETVMLSCDYNTSTEKLTSLRIYWQKDSKMVLAILPGKVQVWPEYKNRTITDMNDNPRIVILALRLSDSGTYTCVIQKPVLKGAYKLEHLTSVRLMIRADFPVPTINDLGNPSPNIRRLICSTSGGFPRPHLYWLENGEELNATNTTVSQDPETKLYMISSELDFNVTNNHSIVCLIKYGELSVSQIFPWSKPKQEPPIDQLPFWVIIPVSGALVLTAVVLYCPACRHVARWKRTRRNEETVGTERLSPIYLGSAQSRAEVPSLSX
modifications: not fully specified; X: residue not identified in the source; ends and bridges not checked
Regarding B1, the Binding Score was 1.

B2: Round 2 CD28A12-5 (ligand)
chain: ITPKSVTKRVKETVMLSCDYNTSTEELTSLRIYWRKDSKMXLAILPGKVQVWPEYKNRTITDMNDNLRIVILALRLSDSGTYTCVIQKPDLKGAYKLEHLTSVRLMIRADFPVPTINDLGNPSPNIRRLICSTSGGFPRPHLYWLENGEELNATNTTVSQDPGTELYMISSELDFNVTNNHSIVCLIKYGELLVSQIFPWSKPKQEPPIDQLPFWVIIPVSGALVLTAVVLYCLACRHVARWKRTRRNEETVGTERLSPIYLGSAQSSG
modifications: not fully specified; X: residue not identified in the source; ends and bridges not checked; also: glycosylated, sites not given here
For B2, the Binding Score was 1.
